{"source": "paper PMC12487280", "key": {"[1]": {"test": "CHX-chase, Western blot, ccRCC cells", "conditions": "glycan lost; control: WT / shCtrl / untreated"}, "[2]": {"test": "Western blot of UBAP2L, ccRCC cells", "conditions": "control: shCtrl / untreated"}, "qPCR, 786-O and Caki-1": {"test": "qPCR, 786-O and Caki-1", "conditions": "glycan lost; control: UBAP2L-WT overexpression"}, "[3]": {"test": "Flag IP, HA-Ub blot, MG132", "conditions": "control: shCtrl"}}}
{"protein": "UBAP2L: OGT knockdown (protein) parent chain: MMTSVGTNRARGNWEQPQNQNQTQHKQRPQATAEQIRLAQMISDHNDADFEEKVKQLIDITGKNQDECVIALHDCNGDVNRAINVLLEGNPDTHSWEMVGKKKGVSGQKDGGQTESNEEGKENRDRDRDYSRRRGGPPRRGRGASRGREFRGQENGLDGTKSGGPSGRGTERGRRGRGRGRGGSGRRGGRFSAQGMGTFNPADYAEPANTDDNYGNSSGNTWNNTGHFEPDDGTSAWRTATEEWGTEDWNEDLSETKIFTASNVSSVPLPAENVTITAGQRIDLAVLLGKTPSTMENDSSNLDPSQAPSLAQPLVFSNSKQTAISQPASGNTFSHHSMVSMLGKGFGDVGEAKGGSTTGSQFLEQFKTAQALAQLAAQHSQSGSTTTSSWDMGSTTQSPSLVQYDLKNPSDSAVHSPFTKRQAFTPSSTMMEVFLQEKSPAVATSTAAPPPPSSPLPSKSTSAPQMSPGSSDNQSSSPQPAQQKLKQQKKKASLTSKIPALAVEMPGSADISGLNLQFGALQFGSEPVLSDYESTPTTSASSSQAPSSLYTSTASESSSTISSNQSQESGYQSGPIQSTTYTSQNNAQGPLYEQRSTQTRRYPSSISSSPQKDLTQAKNGFSSVQATQLQTTQSVEGATGSAVKSDSPSTSSIPPLNETVSAASLLTTTNQHSSSLGGLSHSEEIPNTTTTQHSSTLSTQQNTLSSSTSSGRTSTSTLLHTSVESEANLHSSSSTFSTTSSTVSAPPPVVSVSSSLNSGSSLGLSLGSNSTVTASTRSSVATTSGKAPPNLPPGVPPLLPNPYIMAPGLLHAYPPQVYGYDDLQMLQTRFPLDYYSIPFPTPTTPLTGRDGSLASNPYSGDLTKFGRGDASSPAPATTLAQPQQNQTQTHHTTQQTFLNPALPPGYSYTSLPYYTGVPGLPSTFQYGPAVFPVAPTSSKQHGVNVSVNASATPFQQPSGYGSHGYNTGVSVTSSNTGVPDISGSVYSKTQQSFEKQGFHSGTPAASFNLPSALGSGGPINPATAAAYPPAPFMHILTPHQQPHSQILHHHLQQDGQTGSGQRSQTSSIPQKPQTNKSAYNSYSWGAN", "values": [{"measurement": "degradation_or_half_life", "setting": "[1]", "result": "decreases"}, {"measurement": "expression_or_secretion", "setting": "[2]; glycan lost", "result": "decreases"}]}
{"protein": "UBAP2L: OGA knockdown (protein) parent chain: MMTSVGTNRARGNWEQPQNQNQTQHKQRPQATAEQIRLAQMISDHNDADFEEKVKQLIDITGKNQDECVIALHDCNGDVNRAINVLLEGNPDTHSWEMVGKKKGVSGQKDGGQTESNEEGKENRDRDRDYSRRRGGPPRRGRGASRGREFRGQENGLDGTKSGGPSGRGTERGRRGRGRGRGGSGRRGGRFSAQGMGTFNPADYAEPANTDDNYGNSSGNTWNNTGHFEPDDGTSAWRTATEEWGTEDWNEDLSETKIFTASNVSSVPLPAENVTITAGQRIDLAVLLGKTPSTMENDSSNLDPSQAPSLAQPLVFSNSKQTAISQPASGNTFSHHSMVSMLGKGFGDVGEAKGGSTTGSQFLEQFKTAQALAQLAAQHSQSGSTTTSSWDMGSTTQSPSLVQYDLKNPSDSAVHSPFTKRQAFTPSSTMMEVFLQEKSPAVATSTAAPPPPSSPLPSKSTSAPQMSPGSSDNQSSSPQPAQQKLKQQKKKASLTSKIPALAVEMPGSADISGLNLQFGALQFGSEPVLSDYESTPTTSASSSQAPSSLYTSTASESSSTISSNQSQESGYQSGPIQSTTYTSQNNAQGPLYEQRSTQTRRYPSSISSSPQKDLTQAKNGFSSVQATQLQTTQSVEGATGSAVKSDSPSTSSIPPLNETVSAASLLTTTNQHSSSLGGLSHSEEIPNTTTTQHSSTLSTQQNTLSSSTSSGRTSTSTLLHTSVESEANLHSSSSTFSTTSSTVSAPPPVVSVSSSLNSGSSLGLSLGSNSTVTASTRSSVATTSGKAPPNLPPGVPPLLPNPYIMAPGLLHAYPPQVYGYDDLQMLQTRFPLDYYSIPFPTPTTPLTGRDGSLASNPYSGDLTKFGRGDASSPAPATTLAQPQQNQTQTHHTTQQTFLNPALPPGYSYTSLPYYTGVPGLPSTFQYGPAVFPVAPTSSKQHGVNVSVNASATPFQQPSGYGSHGYNTGVSVTSSNTGVPDISGSVYSKTQQSFEKQGFHSGTPAASFNLPSALGSGGPINPATAAAYPPAPFMHILTPHQQPHSQILHHHLQQDGQTGSGQRSQTSSIPQKPQTNKSAYNSYSWGAN", "values": [{"measurement": "expression_or_secretion", "setting": "[2]; glycan gained", "result": "increases"}]}
{"protein": "UBAP2L: UBAP2L-MUT (S305A) (protein) parent chain: MMTSVGTNRARGNWEQPQNQNQTQHKQRPQATAEQIRLAQMISDHNDADFEEKVKQLIDITGKNQDECVIALHDCNGDVNRAINVLLEGNPDTHSWEMVGKKKGVSGQKDGGQTESNEEGKENRDRDRDYSRRRGGPPRRGRGASRGREFRGQENGLDGTKSGGPSGRGTERGRRGRGRGRGGSGRRGGRFSAQGMGTFNPADYAEPANTDDNYGNSSGNTWNNTGHFEPDDGTSAWRTATEEWGTEDWNEDLSETKIFTASNVSSVPLPAENVTITAGQRIDLAVLLGKTPSTMENDSSNLDPSQAPSLAQPLVFSNSKQTAISQPASGNTFSHHSMVSMLGKGFGDVGEAKGGSTTGSQFLEQFKTAQALAQLAAQHSQSGSTTTSSWDMGSTTQSPSLVQYDLKNPSDSAVHSPFTKRQAFTPSSTMMEVFLQEKSPAVATSTAAPPPPSSPLPSKSTSAPQMSPGSSDNQSSSPQPAQQKLKQQKKKASLTSKIPALAVEMPGSADISGLNLQFGALQFGSEPVLSDYESTPTTSASSSQAPSSLYTSTASESSSTISSNQSQESGYQSGPIQSTTYTSQNNAQGPLYEQRSTQTRRYPSSISSSPQKDLTQAKNGFSSVQATQLQTTQSVEGATGSAVKSDSPSTSSIPPLNETVSAASLLTTTNQHSSSLGGLSHSEEIPNTTTTQHSSTLSTQQNTLSSSTSSGRTSTSTLLHTSVESEANLHSSSSTFSTTSSTVSAPPPVVSVSSSLNSGSSLGLSLGSNSTVTASTRSSVATTSGKAPPNLPPGVPPLLPNPYIMAPGLLHAYPPQVYGYDDLQMLQTRFPLDYYSIPFPTPTTPLTGRDGSLASNPYSGDLTKFGRGDASSPAPATTLAQPQQNQTQTHHTTQQTFLNPALPPGYSYTSLPYYTGVPGLPSTFQYGPAVFPVAPTSSKQHGVNVSVNASATPFQQPSGYGSHGYNTGVSVTSSNTGVPDISGSVYSKTQQSFEKQGFHSGTPAASFNLPSALGSGGPINPATAAAYPPAPFMHILTPHQQPHSQILHHHLQQDGQTGSGQRSQTSSIPQKPQTNKSAYNSYSWGAN", "values": [{"measurement": "other: Melk mRNA level", "setting": "qPCR, 786-O and Caki-1", "result": "decreases"}]}
{"protein": "UBAP2L: shOGT (protein) parent chain: MMTSVGTNRARGNWEQPQNQNQTQHKQRPQATAEQIRLAQMISDHNDADFEEKVKQLIDITGKNQDECVIALHDCNGDVNRAINVLLEGNPDTHSWEMVGKKKGVSGQKDGGQTESNEEGKENRDRDRDYSRRRGGPPRRGRGASRGREFRGQENGLDGTKSGGPSGRGTERGRRGRGRGRGGSGRRGGRFSAQGMGTFNPADYAEPANTDDNYGNSSGNTWNNTGHFEPDDGTSAWRTATEEWGTEDWNEDLSETKIFTASNVSSVPLPAENVTITAGQRIDLAVLLGKTPSTMENDSSNLDPSQAPSLAQPLVFSNSKQTAISQPASGNTFSHHSMVSMLGKGFGDVGEAKGGSTTGSQFLEQFKTAQALAQLAAQHSQSGSTTTSSWDMGSTTQSPSLVQYDLKNPSDSAVHSPFTKRQAFTPSSTMMEVFLQEKSPAVATSTAAPPPPSSPLPSKSTSAPQMSPGSSDNQSSSPQPAQQKLKQQKKKASLTSKIPALAVEMPGSADISGLNLQFGALQFGSEPVLSDYESTPTTSASSSQAPSSLYTSTASESSSTISSNQSQESGYQSGPIQSTTYTSQNNAQGPLYEQRSTQTRRYPSSISSSPQKDLTQAKNGFSSVQATQLQTTQSVEGATGSAVKSDSPSTSSIPPLNETVSAASLLTTTNQHSSSLGGLSHSEEIPNTTTTQHSSTLSTQQNTLSSSTSSGRTSTSTLLHTSVESEANLHSSSSTFSTTSSTVSAPPPVVSVSSSLNSGSSLGLSLGSNSTVTASTRSSVATTSGKAPPNLPPGVPPLLPNPYIMAPGLLHAYPPQVYGYDDLQMLQTRFPLDYYSIPFPTPTTPLTGRDGSLASNPYSGDLTKFGRGDASSPAPATTLAQPQQNQTQTHHTTQQTFLNPALPPGYSYTSLPYYTGVPGLPSTFQYGPAVFPVAPTSSKQHGVNVSVNASATPFQQPSGYGSHGYNTGVSVTSSNTGVPDISGSVYSKTQQSFEKQGFHSGTPAASFNLPSALGSGGPINPATAAAYPPAPFMHILTPHQQPHSQILHHHLQQDGQTGSGQRSQTSSIPQKPQTNKSAYNSYSWGAN", "values": [{"measurement": "other: ubiquitination", "setting": "[3]; glycan lost", "result": "increases"}]}
{"protein": "UBAP2L: shOGA (protein) parent chain: MMTSVGTNRARGNWEQPQNQNQTQHKQRPQATAEQIRLAQMISDHNDADFEEKVKQLIDITGKNQDECVIALHDCNGDVNRAINVLLEGNPDTHSWEMVGKKKGVSGQKDGGQTESNEEGKENRDRDRDYSRRRGGPPRRGRGASRGREFRGQENGLDGTKSGGPSGRGTERGRRGRGRGRGGSGRRGGRFSAQGMGTFNPADYAEPANTDDNYGNSSGNTWNNTGHFEPDDGTSAWRTATEEWGTEDWNEDLSETKIFTASNVSSVPLPAENVTITAGQRIDLAVLLGKTPSTMENDSSNLDPSQAPSLAQPLVFSNSKQTAISQPASGNTFSHHSMVSMLGKGFGDVGEAKGGSTTGSQFLEQFKTAQALAQLAAQHSQSGSTTTSSWDMGSTTQSPSLVQYDLKNPSDSAVHSPFTKRQAFTPSSTMMEVFLQEKSPAVATSTAAPPPPSSPLPSKSTSAPQMSPGSSDNQSSSPQPAQQKLKQQKKKASLTSKIPALAVEMPGSADISGLNLQFGALQFGSEPVLSDYESTPTTSASSSQAPSSLYTSTASESSSTISSNQSQESGYQSGPIQSTTYTSQNNAQGPLYEQRSTQTRRYPSSISSSPQKDLTQAKNGFSSVQATQLQTTQSVEGATGSAVKSDSPSTSSIPPLNETVSAASLLTTTNQHSSSLGGLSHSEEIPNTTTTQHSSTLSTQQNTLSSSTSSGRTSTSTLLHTSVESEANLHSSSSTFSTTSSTVSAPPPVVSVSSSLNSGSSLGLSLGSNSTVTASTRSSVATTSGKAPPNLPPGVPPLLPNPYIMAPGLLHAYPPQVYGYDDLQMLQTRFPLDYYSIPFPTPTTPLTGRDGSLASNPYSGDLTKFGRGDASSPAPATTLAQPQQNQTQTHHTTQQTFLNPALPPGYSYTSLPYYTGVPGLPSTFQYGPAVFPVAPTSSKQHGVNVSVNASATPFQQPSGYGSHGYNTGVSVTSSNTGVPDISGSVYSKTQQSFEKQGFHSGTPAASFNLPSALGSGGPINPATAAAYPPAPFMHILTPHQQPHSQILHHHLQQDGQTGSGQRSQTSSIPQKPQTNKSAYNSYSWGAN", "values": [{"measurement": "other: ubiquitination", "setting": "[3]; glycan gained", "result": "decreases"}]}
